Reference: patent US20260053904A1 (BIOATLA, published 2026)

How the values were obtained:
[1] = target: T1, human EpCAM expressed on cells (CHO, Colo205, 293) (human, UniProt P16422 24-314); experiment: FACS on Colo205 cells, antibody at 1 ug/mL, pH 6.0 and pH 7.4
T1 construct: whole, on cells; also called CHO cells expressing human EpCAM; Colo205 cells expressing human EpCAM
T1 sequence (looked up): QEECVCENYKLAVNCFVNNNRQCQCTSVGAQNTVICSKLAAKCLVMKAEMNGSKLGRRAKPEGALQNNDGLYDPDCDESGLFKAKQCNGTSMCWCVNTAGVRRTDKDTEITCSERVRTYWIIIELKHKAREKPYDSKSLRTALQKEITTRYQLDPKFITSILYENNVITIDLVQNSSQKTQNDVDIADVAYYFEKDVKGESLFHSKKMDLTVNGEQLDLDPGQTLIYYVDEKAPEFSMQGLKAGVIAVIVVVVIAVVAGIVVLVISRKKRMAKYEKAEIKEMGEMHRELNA
Description: The binding activity of these anti-EpCAM antibodies to EpCAM expressing Colo205 cells were measured by fluorescence activated cell sorting (FACS) at two different pH values of 6.0 and 7.4. Different dosages of the antibodies of 10 μg/mL, 1 μg/mL, 0.1 μg/mL and 0.01 μg/mL were used.

[2] = target: T2, recombinant human EpCAM extracellular domain (human, UniProt P16422 24-265); experiment: ELISA on human EpCAM, pH range 5.0 to 7.4
T2 construct: extracellular domain; Plate-coated antigen of the ELISAs; also called human EpCAM ECD; recombinant EpCAM antigen
T2 sequence (looked up): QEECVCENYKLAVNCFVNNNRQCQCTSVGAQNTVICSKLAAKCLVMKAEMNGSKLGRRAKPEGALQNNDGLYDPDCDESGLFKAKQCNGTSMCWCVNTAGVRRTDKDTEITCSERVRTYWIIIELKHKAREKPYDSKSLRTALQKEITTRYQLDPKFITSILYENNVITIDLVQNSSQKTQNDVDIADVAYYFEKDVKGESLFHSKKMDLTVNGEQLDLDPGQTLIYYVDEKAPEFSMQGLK

[3] = target: T1, human EpCAM expressed on cells (CHO, …); experiment: FACS on Colo205 cells expressing human EpCAM, pH 7.4
Description: (§1) Binding activities of the humanized conditionally active anti-EpCAM antibodies to Colo205 cells expressing human EpCAM were measured by FACS at pH 6.0 and pH 7.4. […] The EC50 values for binding to the Colo205 cells expressing human EpCAM by the humanized conditionally active anti-EpCAM antibodies are summarized in Table 9.

[4] = target: T3, cyno EpCAM (recombinant, ELISA antigen) (cynomolgus monkey); experiment: direct binding ELISA, cyno EpCAM, pH 6.0 (printed as IC50)
T3 construct: extracellular domain; also called cynomolgus EpCAM extracellular domain

[5] = target: T2, recombinant human EpCAM extracellular …; experiment: direct binding ELISA, human EpCAM, pH 6.0 (table prints IC50, the text paragraph 376 says EC50)
[6] = target: T3, cyno EpCAM (recombinant, ELISA antigen); experiment: direct binding ELISA, cyno EpCAM; ratio of the printed IC50 at pH 7.4 to pH 6.0
[7] = target: T4, cyno EpCAM expressed on 293 cells (cynomolgus monkey); experiment: FACS on 293 cells expressing cyno EpCAM, pH 6.0
T4 construct: whole, on cells; also called 293 cells expressing cyno EpCAM
T4 sequence (Q1WER1 24-314): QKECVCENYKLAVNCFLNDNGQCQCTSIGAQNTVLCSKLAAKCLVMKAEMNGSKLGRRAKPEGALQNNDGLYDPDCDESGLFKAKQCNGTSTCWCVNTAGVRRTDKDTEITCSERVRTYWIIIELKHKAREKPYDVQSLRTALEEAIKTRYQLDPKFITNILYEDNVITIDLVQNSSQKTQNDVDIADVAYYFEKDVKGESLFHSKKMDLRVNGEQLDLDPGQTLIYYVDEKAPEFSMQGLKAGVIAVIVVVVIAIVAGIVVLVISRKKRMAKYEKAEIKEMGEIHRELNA
Description: (§2) A similar FACS analysis was also carried out using 293 cells expressing cyno EpCAM. […] The EC50 values for binding to the 293 cells expressing cyno EpCAM by the humanized conditionally active anti-EpCAM antibodies are summarized in Table 11.

[8] = target: T2, recombinant human EpCAM extracellular …; experiment: direct binding ELISA, human EpCAM, pH 7.4 (table prints IC50, the text paragraph 376 says EC50)
[9] = target: T4, cyno EpCAM expressed on 293 cells; experiment: FACS on 293 cells expressing cyno EpCAM, pH 7.4
Description: as §2

[10] = target: T1, human EpCAM expressed on cells (CHO, …); experiment: FACS on 293 cells expressing human EpCAM, pH 6.0
Description: (§3) A similar FACS analysis was also carried out using 293 cells expressing human EpCAM. […] The EC50 values for binding to the 293 cells expressing human EpCAM by the humanized conditionally active anti-EpCAM antibodies are summarized in Table 10.

[11] = target: T3, cyno EpCAM (recombinant, ELISA antigen); experiment: ELISA, cyno EpCAM, pH 6.0
Description: (§4) The binding activities of the humanized conditionally active anti-EpCAM antibodies to cyno EpCAM were similarly measured. The EC50 for binding to the cyno EpCAM at pH 6.0 and pH 7.4 for the humanized conditionally active anti-EpCAM antibodies are summarized in Table 7.
(§5) The ELISA assay was performed using the following protocol: [0388] 1) Coat ELISA plates with 100 μL of 0.5 μg/mL (06_20_17 and 06_28_17 Experiments) or 1 μg/mL (07_06_17 and 07_11_17 Experiments) recombinant EpCAM antigen in carbonate-bicarbonate coating buffer [0389] 2) Cover plates with sealing film and incubate overnight at 4° C. [0390] 3) Decant plates and tap out residual liquid on a stack of paper towels [0391] […] 5) Add 200 μL of various pH incubation buffers to the wells according to the sample map.

[12] = target: T2, recombinant human EpCAM extracellular …; experiment: ELISA, human EpCAM, pH 7.4
Description: (§6) The binding activities of the humanized conditionally active anti-EpCAM antibodies to human EpCAM were measured by ELISA, using the template antibody BAP-1-5-01-06, as a control. The EC50 values of the humanized conditionally active anti-EpCAM antibodies for binding to human EpCAM at pH 6.0 and pH 7.4 are summarized in Table 5.
as §5

[13] = target: T3, cyno EpCAM (recombinant, ELISA antigen); experiment: ELISA, cyno EpCAM, pH 7.4
Description: as §4, §5

[14] = target: T2, recombinant human EpCAM extracellular …; experiment: direct binding ELISA, human EpCAM; ratio of the printed IC50 at pH 7.4 to pH 6.0
[15] = target: T3, cyno EpCAM (recombinant, ELISA antigen); experiment: direct binding ELISA, cyno EpCAM, pH 7.4 (printed as IC50)
[16] = target: T2, recombinant human EpCAM extracellular …; experiment: ELISA, human EpCAM, pH 6.0
Description: as §6, §5

[17] = target: T1, human EpCAM expressed on cells (CHO, …); experiment: FACS on 293 cells expressing human EpCAM, pH 7.4
Description: as §3

[18] = target: T1, human EpCAM expressed on cells (CHO, …); experiment: FACS on Colo205 cells expressing human EpCAM, pH 6.0
Description: as §1

[19] = target: T2, recombinant human EpCAM extracellular …; experiment: ELISA on human EpCAM at pH 6.0 after heating the antibody for 1 h at 4, 37, 45, 55 or 60 C
Description: The thermostability of the humanized conditionally active anti-EpCAM antibodies was evaluated by measuring their binding activities after heat treatment. The binding activities of the humanized conditionally active anti-EpCAM antibodies to human EpCAM after heat treatment for one (1) hour at different temperatures at pH 6.0 and pH 7.4 were measured by ELISA.
as §5

[20] = target: T3, cyno EpCAM (recombinant, ELISA antigen); experiment: ELISA with pH titration, cyno EpCAM
Description: The binding activities of the humanized conditionally active anti-EpCAM antibodies to cyno EpCAM with pH titration was similarly measured by ELISA.
as §5

[21] = target: T5, mouse EpCAM-ECD with C-terminal His-tag (expressed in CHO cells) (mouse, UniProt Q99JW5 24-266); experiment: ELISA on purified His-tagged ECDs
T5 construct: extracellular domain
T5 sequence (looked up): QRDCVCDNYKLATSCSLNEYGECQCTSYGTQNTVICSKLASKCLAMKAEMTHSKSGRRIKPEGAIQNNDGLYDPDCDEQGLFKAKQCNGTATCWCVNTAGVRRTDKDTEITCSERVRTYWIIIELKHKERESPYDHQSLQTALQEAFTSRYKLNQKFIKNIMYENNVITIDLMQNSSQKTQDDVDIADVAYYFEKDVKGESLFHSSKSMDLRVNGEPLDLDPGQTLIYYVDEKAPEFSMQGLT
Source text: (§7) Human, mouse and the four chimeric EpCAM extracellular domains were expressed with a C-terminal His-tag in CHO cells and purified.

[22] = target: T6, chimeric human/mouse EpCAM-ECD 1 (Homo sapiens (Human), UniProt P16422 24-265); experiment: ELISA on purified His-tagged ECDs
T6 construct: also called ch1EpCAM-his; chimeric EpCAM-ECD 1
T6 chain: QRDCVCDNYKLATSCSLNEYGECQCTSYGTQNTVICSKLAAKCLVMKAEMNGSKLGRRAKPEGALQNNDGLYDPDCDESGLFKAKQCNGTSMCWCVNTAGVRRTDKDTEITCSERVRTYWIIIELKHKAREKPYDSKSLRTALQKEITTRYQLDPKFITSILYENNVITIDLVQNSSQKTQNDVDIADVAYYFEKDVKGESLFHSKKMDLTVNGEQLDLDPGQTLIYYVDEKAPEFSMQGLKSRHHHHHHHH
Source text: as §7

[23] = target: T2, recombinant human EpCAM extracellular …; experiment: ELISA with pH titration, human EpCAM
Description: The binding activities of the humanized conditionally active anti-EpCAM antibodies to human EpCAM with pH titration were also measured by ELISA.
as §5

Binder | binding result [1] | EC50 [3] [µg/mL] | EC50 [7] [µg/mL] | EC50 [9] [µg/mL] | EC50 [10] [µg/mL] | EC50 [11] [µg/mL] | EC50 [12] [µg/mL] | EC50 [13] [µg/mL] | EC50 [16] [µg/mL] | EC50 [17] [µg/mL] | EC50 [18] [µg/mL] | binding result [19] | further results
BAP-105-01-03 (antibody, V domains shown) VH: QVQLQQSGAELAKPGASVKVSCKASGYTFTSYWMHWVKQRPGQGLEWIGYIRPSTGYTEYNQKFKDKATLTADKSSSTAYMQLSSLTFEDSAVYYCGDGDNWVGFANWGQGTLVTVSA VL: QIVLTQSPAIMSASLGEEIALTCSASSSISYMHWYQQKSGTSPKLLIYSTSNLASGVPSRFSGSGSGTFYSLTISSVEAEDAADYFCHQWSTYHTFGSGTKLEIK | binds | – | – | – | – | – | – | – | – | – | – | – | binding result [2]: binds
BAP-105-01-01 (antibody, V domains shown, Non-conditionally active control; also called template antibody (WT)) VH: QVQLQQSGAELAKPGASVKVSCKASGYTFTSYWMHWVKQRPGQGLEWIGYIRPSTGYTEYNQKFKDKATLTADKSSSTAYMQLSSLTFEDSAVYYCGRGDNWVGFANWGQGTLVTVSA VL: QIVLTQSPAIMSASLGEEIALTCSASSSISYMHWYQQKSGTSPKLLIYSTSNLASGVPSRFSGSGSGTFYSLTISSVEAEDAADYFCHQWSTYHTFGSGTKLEIK | – | 0.268 | 0.625 | 0.863 | 0.092 | 0.0112 | 0.00781 | 0.3 | 0.00833 | 0.125 | 0.263 | – | IC50 [4]: 0.0288 µg/mL; IC50 [5]: 0.0586 µg/mL; ratio (pH7.4/pH6.0) [6]: 1.44; IC50 [8]: 0.0423 µg/mL; ratio (pH7.4/pH6.0) [14]: 0.72; IC50 [15]: 0.0416 µg/mL
BAP-105-01-06 (antibody, V domains shown, also called BAP-1-5-01-06) VH: QVQLQQSGAELAKPGASVKVSCKASGYTFTSYWMHWVKQRPGQGLEWIGYIRPSTGYTEYNQKFKDKATLTADKSSSTAYMQLSSLTFEDSAVYYCGRGDNWVGFANWGQGTLVTVSA VL: QIVLTQSPAIMSASLGEEIALTCSASSSISYMHWYQQKSGTSPKLLIYSTSNLASGVPSRFSGSGSGTFYSLTISSVEAEDAADYFCHQWSTYETFGSGTKLEIK | binds | – | – | – | – | – | – | – | – | – | – | binds | –
105.4-05-04 (antibody, V domains shown) VH: EVQLVQSGAEVKKPGATVKISCKVSGYTFTSYWMHWIRQSPSRGLEWLGYIRPSTGYTEYNQKFKDRFTISRDDSKNTAYLQMNSLKTEDTAVYYCGRGDNWVGFANWGQGTLVTVSS VL: EIVMTQSPATLSVSPGERATLSCSASSSISYMHWYQQKPGKAPKLLIYSTSNLASGVPSRFSGSGSGTDFTLTISSLQPEDFATYYCHQWSTYETFGQGTKVEIK | – | – | – | – | – | – | – | – | – | – | – | binds | –
BAP-105.4-01-05 (antibody, V domains shown, Humanized) VH: EVQLVQSGAEVKKPGATVKISCKVSGYTFTSYWMHWIRQPPGKGLEWIGYIRPSTGYTEYNQKFKDRFTISRDNSKNTLYLQMNSLRAEDTAVYYCGRGDNWVGFANWGQGTLVTVSS VL: EIVLTQSPDFQSVTPKEKVTITCSASSSISYMHWYQQKPGKAPKLLIYSTSNLASGVPDRFSGSGSGTDFTLKISRVEAEDVGVYYCHQWSTYETFGQGTKVEIK | – | 0.418 | 1.6 | 11.6 | 0.129 | 0.49 | 50 | 7.17 | 0.0134 | 0.154 | 0.342 | – | pH inflection point [20]: 6.35 pH; binding result [21]: no binding; binding result [22]: no binding; pH inflection point [23]: 6.83 pH
